# IntAct's records for PubMed 31260151
# B1: Serine protease HTRA3 (Homo sapiens), P83110-2 (parent)
# chain: MQARALLLAALAALALAREPPAAPCPARCDVSRCPSPRCPGGYVPDLCNCCLVCAASEGEPCGGPLDSPCGESLECVRGLCRCRWSHAVCGTDGHTYANVCALQAASRRALQLSGTPVRQLQKGACPLGLHQLSSPRYKFNFIADVVEKIAPAVVHIELFLRHPLFGRNVPLSSGSGFIMSEAGLIITNAHVVSSNSAAPGRQQLKVQLQNGDSYEATIKDIDKKSDIATIKIHPKKKLPVLLLGHSADLRPGEFVVAIGSPFALQNTVTTGIVSTAQREGRELGLRDSDMDYIQTDAIINYGNSGGPLVNLDGEVIGINTLKVTAGISFAIPSDRITRFLTEFQDKQIKAPSLAVH
# B2: Serine protease HTRA3 (Homo sapiens), P83110-1 (parent)
# chain: MQARALLLAALAALALAREPPAAPCPARCDVSRCPSPRCPGGYVPDLCNCCLVCAASEGEPCGGPLDSPCGESLECVRGLCRCRWSHAVCGTDGHTYANVCALQAASRRALQLSGTPVRQLQKGACPLGLHQLSSPRYKFNFIADVVEKIAPAVVHIELFLRHPLFGRNVPLSSGSGFIMSEAGLIITNAHVVSSNSAAPGRQQLKVQLQNGDSYEATIKDIDKKSDIATIKIHPKKKLPVLLLGHSADLRPGEFVVAIGSPFALQNTVTTGIVSTAQREGRELGLRDSDMDYIQTDAIINYGNSGGPLVNLDGEVIGINTLKVTAGISFAIPSDRITRFLTEFQDKQIKDWKKRFIGIRMRTITPSLVDELKASNPDFPEVSSGIYVQEVAPNSPSQRGGIQDGDIIVKVNGRPLVDSSELQEAVLTESPLLLEVRRGNDDLLFSIAPEVVM
# Variants of: B1
# Settings: with xiap_human XIAP
row,Variant,effect of a mutation on the interaction
1,MQARALLLAALAALALAREPPAAPCPARCDVSRCPSPRCPGGYVPDLCNCCLVCAASEGEPCGGPLDSPCGESLECVRGLCRCRWSHAVCGTDGHTYANVCALQAASRRALQLSGTPVRQLQKGACPLGLHQLSSPRYKFNFIADVVEKIAPAVVHIELFLRHPLFGRNVPLSSGSGFIMSEAGLIITNAHVVSSNSAAPGRQQLKVQLQNGDSYEATIKDIDKKSDIATIKIHPKKKLPVLLLGHSADLRPGEFVVAIGSPFALQNTVTTGIVSTAQREGRELGLRDSDMDYIQTDAIINYGNAGGPLVNLDGEVIGINTLKVTAGISFAIPSDRITRFLTEFQDKQIKAPSLAVH [S305A],decreasing interaction strength

# Variants of: B2
# Settings: with xiap_human XIAP
# Target sequence in this assay (P98170 whole entry): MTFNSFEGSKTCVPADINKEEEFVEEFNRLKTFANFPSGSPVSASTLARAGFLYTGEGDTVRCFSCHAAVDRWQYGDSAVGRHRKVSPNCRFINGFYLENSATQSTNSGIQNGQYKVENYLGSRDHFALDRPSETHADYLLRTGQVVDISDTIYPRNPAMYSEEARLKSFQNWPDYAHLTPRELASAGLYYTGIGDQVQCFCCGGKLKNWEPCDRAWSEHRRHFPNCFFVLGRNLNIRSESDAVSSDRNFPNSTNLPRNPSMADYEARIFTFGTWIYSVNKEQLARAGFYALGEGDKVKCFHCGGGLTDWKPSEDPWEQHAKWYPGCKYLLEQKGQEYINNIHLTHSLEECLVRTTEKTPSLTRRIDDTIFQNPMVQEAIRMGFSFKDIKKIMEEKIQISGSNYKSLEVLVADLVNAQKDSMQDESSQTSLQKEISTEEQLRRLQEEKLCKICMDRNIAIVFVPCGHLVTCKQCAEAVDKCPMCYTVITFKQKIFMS
row,Variant,effect of a mutation on the interaction
1,MQARALLLAALAALALAREPPAAPCPARCDVSRCPSPRCPGGYVPDLCNCCLVCAASEGEPCGGPLDSPCGESLECVRGLCRCRWSHAVCGTDGHTYANVCALQAASRRALQLSGTPVRQLQKGACPLGLHQLSSPRYKFNFIADVVEKIAPAVVHIELFLRHPLFGRNVPLSSGSGFIMSEAGLIITNAHVVSSNSAAPGRQQLKVQLQNGDSYEATIKDIDKKSDIATIKIHPKKKLPVLLLGHSADLRPGEFVVAIGSPFALQNTVTTGIVSTAQREGRELGLRDSDMDYIQTDAIINYGNAGGPLVNLDGEVIGINTLKVTAGISFAIPSDRITRFLTEFQDKQIKDWKKRFIGIRMRTITPSLVDELKASNPDFPEVSSGIYVQEVAPNSPSQRGGIQDGDIIVKVNGRPLVDSSELQEAVLTESPLLLEVRRGNDDLLFSIAPEVVM [S305A],decreasing interaction strength
